Assay [1] deals with ([H3.2]·[H3.2K4me3K27me3]) heterotypic nucleosome (UniProt Q71DI3). Put plainly: Captify Luminex bead-based binding assay; GST-PtSHL titrated to a multiplex panel of PTM-defined homotypic and heterotypic nucleosomes; median fluorescence intensity; EC50^rel.
The target of assay [2] is ([H3K4me3K27me3]2) homotypic nucleosome. Described as above.

Substance GST-PtSHL BAH-PHD (domain or fragment) displayed a fold preference over ([H3.2K4me3]·[H3.2K27me3]) or its comprising PTMs in assay [1] greater than 350 fold. The substance further registered a fold preference over nucleosomes with each comprising PTM in assay [2] greater than 150 fold.

The values are drawn from paper PMC12947556.
